# In patent US6586197B1, “Methods and materials for identifying novel pesticide agents” (priority 1999, dated 2003):
# T1: native 120 kDa APN from M sexta BBMV (Manduca sexta, UniProt Q11001)
# T1 construct: native 120 kDa APN from M sexta BBMV; from tissue; host or cells: brush border membrane vesicles from midguts of 5th instar M. sexta larvae, CHAPS-solubilised
# T1 sequence (Q11001 36-968): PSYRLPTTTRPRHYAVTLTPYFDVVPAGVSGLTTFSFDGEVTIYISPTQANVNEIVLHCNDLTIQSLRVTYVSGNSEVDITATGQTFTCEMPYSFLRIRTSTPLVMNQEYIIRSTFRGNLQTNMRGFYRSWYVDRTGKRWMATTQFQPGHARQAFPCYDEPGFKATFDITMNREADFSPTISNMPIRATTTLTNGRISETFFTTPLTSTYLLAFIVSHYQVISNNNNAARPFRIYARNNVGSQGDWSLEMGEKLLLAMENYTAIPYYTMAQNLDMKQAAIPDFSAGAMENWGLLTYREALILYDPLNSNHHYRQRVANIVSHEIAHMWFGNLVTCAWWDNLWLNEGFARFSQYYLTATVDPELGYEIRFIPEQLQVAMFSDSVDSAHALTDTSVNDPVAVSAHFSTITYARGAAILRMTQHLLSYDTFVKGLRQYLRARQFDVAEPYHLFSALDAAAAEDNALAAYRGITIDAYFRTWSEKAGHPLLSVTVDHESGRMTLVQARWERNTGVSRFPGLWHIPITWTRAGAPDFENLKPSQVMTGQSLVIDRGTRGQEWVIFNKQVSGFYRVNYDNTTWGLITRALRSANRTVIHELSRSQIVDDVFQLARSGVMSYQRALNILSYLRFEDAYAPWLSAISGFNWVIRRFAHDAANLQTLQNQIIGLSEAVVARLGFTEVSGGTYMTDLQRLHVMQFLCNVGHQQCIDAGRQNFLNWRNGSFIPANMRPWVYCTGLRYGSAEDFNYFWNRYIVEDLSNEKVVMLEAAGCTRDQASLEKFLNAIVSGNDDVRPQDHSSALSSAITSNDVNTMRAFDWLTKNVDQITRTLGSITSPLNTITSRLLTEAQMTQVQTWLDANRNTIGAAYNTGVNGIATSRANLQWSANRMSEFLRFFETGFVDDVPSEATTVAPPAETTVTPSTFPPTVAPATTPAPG
# What was measured:
# [1] = system: Sf21 cells transfected with pHSP120; assay: Toxicity assay (Trypan blue cell mortality), Sf21 cells expressing M. sexta 120 kDa APN; conditions: 2 h
# Experimental: (§1) The pHSP120 plasmid DNA was isolated and purified using a Plasmid Maxi Kit (Qiagen, Valencia, Calif.). Sf21 (IPLB-Sf21) cells (Vaughn et al., 1977) were plated at 1.8×10^6 cells per plate (60 mm diameter) prior to transfection with pHSP120 DNA. Plasmid DNA (10 μg) was mixed with 5 μl of Lipofectin reagent (Gibco BRL, Gaithersburg, Md.) and combined with 1 ml of TC-100 medium (Gibco BRL, Gaithersburg, Md.). The mixture was incubated at room temperature for 15 min. Following 3 washes with TC-100 medium, the DNA/Lipofectin mixture was added to the cells, and then the cells were incubated at room temperature for 4 h on a rocker. After removal of DNA/Lipofectin mixture, TC-100 with 10% fetal bovine serum (4 ml) was added to the plates and the cells were incubated at 27° C. overnight. Expression of 120 kDa APN in Sf21 cells was induced by heat-shocking cells at 42° C. for 30 min the following day. After incubation at 27° C. for 24 h, the cells were collected and analyzed using immunofluorescence localization and Western blotting.
# Sf21 cells (1.8×10^6) were grown and heat-shocked as described above. […] The freshly prepared toxin solution (1 ml) was added to each Sf21 cell plate and incubated at room temperature for 2 h. Cell mortality was determined by trypan blue staining as described by Thomas and Ellar (1983).
# (§2) Thetoxicity of three Cry1toxins to Sf21 cells expressing M sexta 120 APN was determined. A single concentration of Cry1toxins (40 μg/ml) was used and the cell mortality was measured by Trypan blue staining (Thomas and Ellar 1983).
# [2] = system: Sf21 cells transfected with pHSP-HR5; assay: Toxicity assay (Trypan blue cell mortality), control-vector Sf21 cells; conditions: 40 μg/ml toxin in insect PBS, 2 h, Trypan blue (0.1%) staining; means of three assays (±standard error); control vector
# Experimental: as §1, with “Expression of 120 kDa APN in Sf21 cells was induced by heat-shocking cells at 42° C. for 30 min the following day.” left out
# Sf21 cells (1.8×10^6) were grown and heat-shocked as described above. […] Cell mortality was determined by trypan blue staining as described by Thomas and Ellar (1983).
# as §2
# [3] = system: expressed 120 kDa APN on Sf21 cells transfected with pHSP120; assay: Immunofluorescence binding of rhodamine-labeled toxins to Sf21 cells (confocal microscopy), pHSP120; set-up: species or system Manduca sexta; conditions: toxin 1 μg/ml, fixed Sf21 cells transfected with pHSP120
# Experimental: Growth of B. thuringiensis strains, trypsin activation, and fast-performance liquid chromatography (Pharmacia) purification of Cry1Ac, […] and Cry3a toxins were done as previously described (Garczynski et al 1991; Lu and Adang 1996). […] The purified Cry1Ac and Cry1Ba (200 μg) were labeled with 5-(and-6)-carboxytetramethylrhodamine, succinimidyl ester [5(6)-TAMRA SE] (Molecular Probe, Eugene, Oreg.) according to the manufacturer's instructions. Briefly, 5(6)-TAMRA (5 mg) were dissolved in 0.5 ml of Dimethylformamide (DMF) immediately before starting the labeling. The dye solution (100 μl) was slowly added into 500 μl of toxin sample (200 μg toxins) and incubated for 1 h at room temperature. The reaction was stopped by adding 0.1 ml of 1.5 M hydroxylamine, pH 8.5, and then the mixture was incubated. for 1h at room temperature. […]
# Sf21 cells were plated onto a microscope cover glass (18×18 mm) in a tissue culture dish (60×15 mm diameter), and then transfected and heat-shocked as described above. […] Immunostained cells were observed using fluorescence microscopy or fluorescence confocal microscopy (Center for Advanced Ultrastructural Research, University of Georgia).
# Since the expressed 120 kDa APN located on Sf21 cell surfaces, we examined the binding of Cry1toxins to Sf21 cells using double immunofluorescence staining. […] And then cells were viewed by fluorescence confocal microscopy.
# [4] = system: expressed 120 kDa APN from Sf21 cells; assay: Toxin affinity chromatography and anti-APN immunoblot, Sf21 cells; type: binding, Manduca sexta; conditions: CHAPS-solubilized Sf21 cells, anti-APN immunoblot (FIG. 13)
# Experimental: Affinity purification method of M. sexta 120 kDa APN from Sf21 cells or M. sexta midgut BBMV was described in Luo et al (1996). Briefly, Cry1Ac, Cry1Ba and Cry3a toxins (200 μg) were coupled to 400 μl of cyanogen bromide-activated Sepharose 4B in 20 mM Na2CO3, pH 9.6. M sexta BBMV (1 ml, 3.4 mg/ml proteins) or Sf21 cells (10^7 cells) were solubilized with 2% 3-[(3-cholamidopropyl) dimethylammoniol]-1-propane-sulphonate (CHAPS) in buffer A (50 mM Na2CO3, pH 9.6, 200 mM NaCl, 5 mM EGTA, 0.1% CHAPS). Insoluble material was removed by centrifugation at 27,000×g for 30 min at 4° C. CHAPS-solubilized BBMV (1 ml) or Sf21 cells (2 ml) were then added to the toxin-coupled Sepharose beads equilibrated with Buffer A. The mixture was incubated at 4° C. overnight. After washing with 100 ml of Buffer A, the binding protein-toxin complex was dissociated from the beads by heating in SDS-PAGE sample buffer at 100° C. for 5 min. The samples were separated by 8% SDS-PAGE, and then electrophoretically transferred to nitrocellulose membrane (Millipore Corp., Bedford, Mass.) in transfer buffer (Towbin et al., 1979) at 4° C. overnight. The membrane was blocked with 5% non-fat dry milk in PBST at room temperature for 1 h, and then probed with anti-APN antibody (0.5 μg/ml) in PBST containing 0.1% non-fat dry milk for 2 h. […]
# [5] = molecular target: T1, native 120 kDa APN from M sexta BBMV; assay: Toxin affinity chromatography and anti-APN immunoblot, midgut BBMV; type: binding; conditions: CHAPS-solubilized M sexta BBMV, anti-APN immunoblot (FIG. 13)
# Experimental: M. sexta larvae were reared on artificial diet (Southland Products, Inc.; Lake Village, Ark.) at 26° C., 70% relative humidity with a photoperiod of 12:12 (Light:Dark) h. Midguts were dissected from second day 5th instar larvae, and either immediately used to prepare brush border membrane vesicles (BBMV) or stored at −80° C. BBMV were prepared according to that described in Wolfersberger et al. (1987) as modified in Ferre et al. (1991) and stored in 0.3 M mannitol, 5 mM EGTA, 17 mM Tris-Cl, pH 7.5, at −80° C. until needed. The 115 kDa M. sexta APN was purified as described previously (Lu and Adang, 1996).
# Affinity purification method of M. sexta 120 kDa APN from Sf21 cells or M. sexta midgut BBMV was described in Luo et al (1996). Briefly, Cry1Ac, Cry1Ba and Cry3a toxins (200 μg) were coupled to 400 μl of cyanogen bromide-activated Sepharose 4B in 20 mM Na2CO3, pH 9.6. M sexta BBMV (1 ml, 3.4 mg/ml proteins) or Sf21 cells (10^7 cells) were solubilized with 2% 3-[(3-cholamidopropyl) dimethylammoniol]-1-propane-sulphonate (CHAPS) in buffer A (50 mM Na2CO3, pH 9.6, 200 mM NaCl, 5 mM EGTA, 0.1% CHAPS). Insoluble material was removed by centrifugation at 27,000×g for 30 min at 4° C. CHAPS-solubilized BBMV (1 ml) or Sf21 cells (2 ml) were then added to the toxin-coupled Sepharose beads equilibrated with Buffer A. The mixture was incubated at 4° C. overnight. […]
# [6] = 40 μg/ml toxin, the sentence does not say which plasmid
Molecule,"Mortality (%) (±SE), Cells transfected with pHSP 120 ([1]; 40 μg/ml toxin in insect PBS, Trypan blue (0.1%) staining, means of three assays (±standard error))","Mortality of Sf21 cells (cells killed) [1, 6]","Toxicity to Sf21 cells in words [1, 6]","Mortality (%) (±SE), Cells transfected with pHSP-HR5 [2]",Binding of rhodamine-labeled toxin (immunofluorescence) [3],Binding of APN to toxin affinity column [4],Binding of APN to toxin affinity column [5]
"Cry1Ba (65 kDa): B. thuringiensis Cry1Ba toxin, 65 kDa form, provided by Dr. Masson (protein) IEDSLCIAEGNNIDPFVSASTVQTGINIAGRILGVLGVPFAGQLASFYSFLVGELWPRGRDQWEIFLEHVEQLINQQITENARNTALARLQGLGDSFRAYQQSLEDWLENRDDARTRSVLYTQYIALELDFLNAMPLFAIRNQEVPLLMVYAQAANLHLLLLRDASLFGSEFGLTSQEIQRYYERQVERTRDYSDYCVEWYNTGLNSLRGTNAASWVRYNQFRRDLTLGVLDLVALFPSYDTRTYPINTSAQLTREVYTDAIGATGVNMASMNWYNNNAPSFSAIEAAAIRSPHLLDFLEQLTIFSASSRWSNTRHMTYWRGHTIQSRPIGGGLNTSTHGATNTSINPVTLRFASRDVYRTESYAGVLLWGIYLEPIHGVPTVRFNFTNPQNISDRGTANYSQPYESPGLQLKDSETELPPETTERPNYESYSHRLSHIGIILQSRVNVPVYSWTHRSADRTNTIGPNRITQIPMVKASELPQGTTVVRGPGFTGGDILRRTNTGGFGPIRVTVNGPLTQRYRIGFRYASTVDFDFFVSRGGTTVNNFRFLRTMNSGDELKYGNFVRRAFTTPFTFTQIQDIIRTSIQGLSGNGEVYIDKIEIIPVTATFEAEYDLER",17.6 (±0.9) %,about 17%,low toxicity,16.5 (±0.1) %,only bound weakly,bound weakly,bound weakly
"Cry3a: trypsin-activated, purified B. thuringiensis Cry3a toxin (protein) NPHSQGRIRELFSQAESHFRNSMPSFAISGYEVLFLTTYAQAANTHLFLLKDAQIYGEEWGYEKEDIAEFYKRQLKLTQEYTDHCVKWYNVGLDKLRGSSYESWVNFNRYRREMTLTVLDLIALFPLYDVRLYPKEVKTELTRDVLTDPIVGVNNLRGYGTTFSNIENYIRKPHLFDYLHRIQFHTRFQPGYYGNDSFNYWSGNYVSTRPSIGSNDIITSPFYGNKSSEPVQNLEFNGEKVYRAVANTNLAVWPSAVYSGVTKVEFSQYNDQTDEASTQTYDSKRNVGAVSWDSIDQLPPETTDEPLEKGYSHQLNYVMCFLMQGSRGTIPVLTWTHKSVDFFNMIDSKKITQLPLVKAYKLQSGASVVAGPRFTGGDIIQCTENGSAATIYVTPDVSYSQKYRARIHYASTSQITFTLSLDGAPFNQYYFDKTINKGDTLTYNSFNLASFSTPFELSGNNLQIGVTGLSAGDKVYIDKIEFIPVN",,,,,,did not bind,
